Measurements taken from PMC8487509.

Molecular target: T1, LsrR (Escherichia coli DCM5 (mammary pathogenic)) (UniProt Q8XAY6)
T1 sequence: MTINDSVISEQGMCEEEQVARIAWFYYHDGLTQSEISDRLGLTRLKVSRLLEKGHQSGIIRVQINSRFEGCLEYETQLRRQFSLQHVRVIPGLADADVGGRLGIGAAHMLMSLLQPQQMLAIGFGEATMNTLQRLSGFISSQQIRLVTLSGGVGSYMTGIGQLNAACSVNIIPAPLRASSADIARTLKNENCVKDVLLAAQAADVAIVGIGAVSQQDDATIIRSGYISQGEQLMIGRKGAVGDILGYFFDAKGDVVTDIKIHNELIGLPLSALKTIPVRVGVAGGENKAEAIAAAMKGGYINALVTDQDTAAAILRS
Assay: EMSA
Conditions: 5x binding buffer (4 µL) […]

## TCCGCAAAAGTTCACGTTGGCTTTAGTTATTCGAGTTGAGAAACTCTCGAAACGGGCAGTGACTTCAAGGGTTAAAAGAGGTGCCGCTCCGTTTCTGTGAGCAATTATCAGTCAGAATGCTTGATAGGGATAATCGTTCATTGCTATTCTACCTATCGCCATGAACTATCGTGGCGATGGAGGATGGATA (double strand) [p-oxyR]
  binding: no binding
